Measured values taken from FireProtDB (doi:10.1074/jbc.273.32.19982).

B1: DNA-binding protein HU 1 wild type, P08821 (protein)
chain: MNKTELINAVAEASELSKKDATKAVDSVFDTILDALKNGDKIQLIGFGNFEVRERSARKGRNPQTGEEIEIPASKVPAFKPGKALKDAVAGK
B2: DNA-binding protein HU wild type, P0A3H0 (protein)
chain: MNKTELINAVAETSGLSKKDATKAVDAVFDSITEALRKGDKVQLIGFGNFEVRERAARKGRNPQTGEEMEIPASKVPAFKPGKALKDAVK

Settings: pH 7, Thermal, CD, Sodium phosphate 5 mM, NaCl 0.2 M, reversible: yes, whole UniProt chain shown

Protein	Tm (Bacillus subtilis (strain 168)) [°C]	Tm (Geobacillus stearothermophilus) [°C]	unfolding enthalpy (van 't Hoff) (Geobacillus stearothermophilus) [kcal/mol]
B1	48.6		
B2		63.9	72.8
